Measured values published in patent publication US10344295B2, “Methods and compositions for providing resistance to glufosinate” (priority 2014, dated 2019).

Legend:
[1] = system: TOP10 E. coli cells; experiment: minimum inhibitory concentration experiment: growth of E. coli in liquid media with glufosinate; type: cell-based
Description: FIG. 1 provides a minimal inhibitory concentration experiment. A polynucleotide encoding SEQ ID NO: 1 was transformed into E. coli cells for protein expression with an N-terminal maltose binding protein. The resulting E. coli clone was analyzed for the ability to grow in the presence of glufosinate.
Predicted ORFs (open reading frames) and protein products from genome sequences of several bacterial isolates were identified. A predicted protein was found with 43.53% identity to the phosphinothricin acetyltransferase (PAT) gene. This gene coding for a new GluR (glufosinate resistance) protein was cloned from that strain and is referred to herein as GluRAP1 and set forth in SEQ ID NO:1 (protein sequence) and 2 (DNA sequence). […] The gene coding for SEQ ID NO: 1 was cloned into the pMAL vector and transformed into TOP10 E. coli cells for protein expression with an N-terminal Maltose Binding Protein. […]
The strain was subsequently grown with success on 100 mM glufosinate-supplemented M63 minimal media; while the gene coding for a new GluR (glufosinate resistance) protein was cloned from that strain and referred to herein as GluRAP and set forth in SEQ ID NO:1 and 2. […] The resulting E. coli clone was analyzed for the ability to grow in the presence of glufosinate. […]

[2] = system: E. coli; experiment: growth of E. coli expressing MBP fusions under various glufosinate concentrations after IPTG induction (FIG. 3); type: cell-based; settings: compared with the other genes
Description: Genes coding for glufosinate-resistant proteins were cloned as MBP (Maltose Binding Protein) fusions and expressed in E. coli. These E. coli strains were grown. The ability of the strains to tolerate and continue to grow in the presence of glufosinate was measured under various glufosinate concentrations upon induction of gene expression by addition of IPTG into the media in which the strains were growing.

[3] = system: soy callus; experiment: selection of transformed soy callus on medium containing glufosinate; type: cell-based, soybean; settings: medium containing 25 uM glufosinate; construct pSV37; GUS stain confirmed
Description: Transgenic plants were selected by incubating callus on medium containing 25 uM glufosinate.
Transgenic plants were selected by incubating callus on medium containing 25 uM glufosinate. […] (FIG. 4) See above for construct pSV37 that carries APG00318 gene.

CP(=O)(O)CCC(N)C(=O)O (stereo not drawn) [glufosinate]
glufosinate concentration tolerated by control E. coli ([1]; control E. coli, minimum inhibitory concentration experiments): ≤ 1 mM

B1: SEQ ID NO: 7: glufosinate resistance protein from Flavobacterium sp. strain APG00135, encoded by SEQ ID NO: 8 (protein)
chain: MSVILRPATVNDLEKILEIVNHSILHTTANYSYDIQTIEVQTKWFEDKKAKNLPIVVADLDGEVVGFGSYGQFREKIGYQYTVEHSVYVVDNVIGKGIGSKLLTELIRLAKEQGYHVMIGAIDADNAGSITFHEKFGFVATGTIREVGYKFDHWLDLVFMQLILK
modifications: Flavobacterium sp. strain APG00135
tolerance level to glufosinate of E. coli cultures carrying the gene [2]: higher tolerance level to glufosinate

B2: SEQ ID NO: 9: glufosinate resistance protein from Serratia sp. strain APG00119, encoded by SEQ ID NO: 10 (protein)
chain: MTTLSAPVLSLLDATPDDMAAVLRIYTQHVLYGAASFEEQPPTLAEMQLRLSKVREAGLPWLVAKSAGVIVGYCYATPYRPRPAYRFTVEDSVYIAEGQQGKGIGRALLSALIARCEQGPWRQMLAIVGDSAANRGSLALHQSLGFTSAGTLKAVGFKLGEWRDTQIMQRALGAGGNRHP
modifications: Serratia sp. strain APG00119
tolerance level to glufosinate of E. coli cultures carrying the gene [2]: higher tolerance level to glufosinate

B3: SEQ ID NO:1: glufosinate resistance protein from Pseudomonas sp. strain APG00318, encoded by SEQ ID NO: 2 (protein)
chain: MSKTTVRIAQVSDAQAIQAIYAPMVESTTISFELEPPSVEEMAMRIESTLLTYPYLVAVRDGQVIGYAYASQHRAREAYRWSVDVTVYISPEAHRSGVGRALYDVLLPTLKKQGFHAAYAGIALPNDGSVGLHEALGFAHIGTYPEVGFKHGAWRDVGYWRIALDSTNPPKLPVLFSEISLF
modifications: Pseudomonas sp. strain APG00318
glufosinate resistance of transformed soy callus [3]: Glufosinate resistance was observed
tolerance level to glufosinate of E. coli cultures carrying the gene [2]: higher tolerance level to glufosinate
concentration of glufosinate at which the E. coli clone was able to grow in liquid media ([1]; E. coli clone expressing the protein with N-terminal maltose binding protein (pMAL)): 100 mM
